Laboratory results published in patent publication US20210253718A1, “FRIZZLED5 PROTEIN-BINDING AGENTS” (Modmab Therapeutics Corporation, priority 2016, published 2021).
Positions count from the first letter of the chain named.

B1: Fab-2915: anti-FZD5 Fab with antibody variable region Fv-2915; CDR SEQ ID NOs: 35, 36, 54, 93, 130, 166 (antibody, V domains shown)
VH: EVQLVESGGGLVQPGGSLRLSCAASGFNIYYYSMHWVRQAPGKGLEWVASIYSSYGYTSYADSVKGRFTISADTSKNTAYLQMNSLRAEDTAVYYCARGYHYYPYYSGLDYWGQGTLVTVSS
VL: DIQMTQSPSSLSASVGDRVTITCRASQSVSSAVAWYQQKPGKAPKLLIYSASSLYSGVPSRFSGSRSGTDFTLTISSLQPEDFATYYCQQAYYHSLITFGQGTKVEIK
B2: Fab-2918: anti-FZD5 Fab with antibody variable region Fv-2918; CDR SEQ ID NOs: 35, 36, 57, 96, 133, 169 (antibody, V domains shown)
VH: EVQLVESGGGLVQPGGSLRLSCAASGFNLSYSSIHWVRQAPGKGLEWVASIYSSYSSTSYADSVKGRFTISADTSKNTAYLQMNSLRAEDTAVYYCARFGYWAIDYWGQGTLVTVSS
VL: B1 VL with Y92F, Y93G, H94A, I97F
B3: Fab-2916: anti-FZD5 Fab with antibody variable region Fv-2916; CDR SEQ ID NOs: 35, 36, 55, 94, 131, 167 (antibody, V domains shown)
VH: B2 VH with L29I, S53P, S57Y, S59Y, F99Y, W102Y, A103G, I104M
VL: DIQMTQSPSSLSASVGDRVTITCRASQSVSSAVAWYQQKPGKAPKLLIYSASSLYSGVPSRFSGSRSGTDFTLTISSLQPEDFATYYCQQWYHYPYLITFGQGTKVEIK

Assays:
FZD6 CRD = biological target: T1, FZD6 CRD (Homo sapiens, UniProt O60353); assay: Immunofluorescence of anti-FZD5 Fab binding to CHO cells overexpressing Frizzled CRD; parameters: key: −: no binding; +: very weak binder; ++: weak binder; +++: good binder; ++++: very good binder
T1 construct: S20-P146; GPI anchor signal (C); expressed in transfected cells; host or cells: CHO cells, lentiviral pLenti-puro
T1 sequence (O60353 20-146): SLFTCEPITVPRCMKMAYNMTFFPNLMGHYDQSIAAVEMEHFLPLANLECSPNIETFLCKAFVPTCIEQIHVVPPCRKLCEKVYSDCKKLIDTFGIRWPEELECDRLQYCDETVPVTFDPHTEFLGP
Summary of the method: (§1)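 First, ten CHO cell lines were made, each lentivirally expressing a different human Frizzled CRD tagged with myc and tethered by GPI. Next, anti-FZD5 Fabs were added to each line. Finally, binding was assessed by immunofluorescence and flow cytometry.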

FZD7 CRD = biological target: T2, FZD7 CRD (Homo sapiens, UniProt O75084); assay: as above; parameters: key: −: no binding; +: very weak binder; ++: weak binder; +++: good binder; ++++: very good binder
T2 construct: D45-S169; GPI anchor signal (C); expressed in transfected cells; host or cells: CHO cells, lentiviral pLenti-puro
Summary of the method: as §1

FZD10 CRD = biological target: T3, FZD10 CRD (Homo sapiens, UniProt Q9ULW2); assay: as above; parameters: key: −: no binding; +: very weak binder; ++: weak binder; +++: good binder; ++++: very good binder
T3 construct: 30-156; GPI anchor signal (C); expressed in transfected cells; host or cells: CHO cells, lentiviral pLenti-puro
T3 sequence (Q9ULW2 30-156): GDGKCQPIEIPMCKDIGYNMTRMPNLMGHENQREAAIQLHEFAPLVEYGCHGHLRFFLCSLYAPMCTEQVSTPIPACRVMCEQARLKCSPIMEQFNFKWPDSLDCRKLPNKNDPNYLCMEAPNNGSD
Summary of the method: as §1

RWP1 cells [1] = assay: Effect of anti-FZD5 Fabs on proliferation of pancreatic cancer cell lines (percent growth inhibition); type: cell-based, human; conditions: Fab 10 μg/ml
Description: (§2) The effect of presently disclosed anti-FZD5 Fabs on proliferation of RNF43 loss-of-function mutant pancreatic cancer cell lines HPAFII, PATU8988S and ASPC-1; and on pancreatic cancer cell line RWP1, was tested at […] and 10 μg/ml.

PATU8988S cells [2] = assay: as above; type: cell-based, human; conditions: Fab 10 μg/ml
Description: as §2

HPAFII cells = assay: as above; type: cell-based, human; conditions: for percent growth inhibition, HPAFII 2 μg/ml: Fab 2 μg/ml; for percent growth inhibition, HPAFII 10 μg/ml: Fab 10 μg/ml
Description: as §2

ASPC-1 cells [3] = assay: as above; type: cell-based, human; conditions: Fab 10 μg/ml
Description: as §2

RWP1 cells [4] = assay: as above; type: cell-based, human; conditions: Fab 2 μg/ml
PATU8988S cells [5] = assay: as above; type: cell-based, human; conditions: Fab 2 μg/ml
ASPC-1 cells [6] = assay: as above; type: cell-based, human; conditions: Fab 2 μg/ml

| Molecule | Immunofluorescence binding, Frizzled CRD overexpressed on CHO cells: FZD6 (FZD6 CRD) | Immunofluorescence binding, Frizzled CRD overexpressed on CHO cells: FZD7 (FZD7 CRD) | Immunofluorescence binding, Frizzled CRD overexpressed on CHO cells: FZD10 (FZD10 CRD) | percent growth inhibition, RWP1 10 μg/ml (RWP1 cells [1]) | percent growth inhibition, PATU8988s 10 μg/ml (PATU8988S cells [2]) | percent growth inhibition, HPAFII 2 μg/ml (HPAFII cells) | percent growth inhibition, HPAFII 10 μg/ml (HPAFII cells) | percent growth inhibition, ASPC-1 10 μg/ml (ASPC-1 cells [3]) | percent growth inhibition, RWP1 2 μg/ml (RWP1 cells [4]) | percent growth inhibition, PATU8988s 2 μg/ml (PATU8988S cells [5]) | percent growth inhibition, ASPC-1 2 μg/ml (ASPC-1 cells [6]) |
| --- | --- | --- | --- | --- | --- | --- | --- | --- | --- | --- | --- |
| B1 | − | ++++ | − | 45.04% | −19.02% | −16.37% | −31.87% | 4.18% | 48.66% | −6.43% | 5.51% |
| B2 | − | + | − | 39.24% | −1.92% | 37.15% | 44.60% | 45.56% | 3.49% | −0.86% | 44.67% |
| B3 | − | ++++ | − | 30.61% | −19.08% | 31.28% | 52.29% | 42.26% | 1.68% | −25.67% | 44.03% |
